In patent US20230391879A1 (INTERVET, published 2023):

T1: Canine IL-31RA ECD-10His (canine)
T1 construct: made in HEK-293 or CHO cells and coated on the ELISA plates; also called canine IL-31 receptor alpha extracellular domain HIS-tagged protein; cIL-31RA
T1 chain: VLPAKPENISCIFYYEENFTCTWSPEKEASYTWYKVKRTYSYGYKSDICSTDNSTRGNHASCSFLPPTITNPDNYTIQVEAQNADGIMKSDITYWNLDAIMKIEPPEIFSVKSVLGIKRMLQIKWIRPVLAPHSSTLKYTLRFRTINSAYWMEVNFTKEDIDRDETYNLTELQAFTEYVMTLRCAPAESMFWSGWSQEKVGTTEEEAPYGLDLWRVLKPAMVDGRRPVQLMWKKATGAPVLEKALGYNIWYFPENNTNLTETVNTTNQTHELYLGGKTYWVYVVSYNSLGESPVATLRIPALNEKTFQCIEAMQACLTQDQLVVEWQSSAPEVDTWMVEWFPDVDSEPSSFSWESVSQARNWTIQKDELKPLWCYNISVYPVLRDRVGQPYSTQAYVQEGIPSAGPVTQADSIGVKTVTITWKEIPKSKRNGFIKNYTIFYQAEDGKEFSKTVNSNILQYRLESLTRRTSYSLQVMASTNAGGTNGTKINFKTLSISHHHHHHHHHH


Molecular target: T1, Canine IL-31RA ECD-10His
Assay: ELISA (FIG. 6C)

binding result | Binder
binds | caninized 44E2VH2VK1 (antibody, V domains shown, Caninized antibody, canine IgG-Bm heavy chain and canine kappa light chain; also called c44E2; c44E2VH2-cIgGBm + c44E2VK1-cCK) VH: EVQLVESGGDLVKPEGSLRLSCVVSGFSLTSNGVSWVRQAPGKGLQWIAAISSGGSTYYNSVLKSRLTISRDNAKNTLYLQMNSLRTEDTAVYYCARRLSGYNYVPFAYWGQGTLVTVSS VL: EIVMTQSPASLSLSQEEKVTITCKASQNIYKHLAWYQQKPGQAPKLLIYNANSLQTGVPSRFSGSGSGTDFSFTISSLEPEDVAVYYCQQYYSGDTFGAGTKVELKR

Molecular target: T1, Canine IL-31RA ECD-10His
Assay: ELISA, IL-31RA coated

binding result | Binder
binds | 7D7 (antibody, V domains shown, Rat monoclonal antibody from a hybridoma; also called rat mAb 7D7) VH: EVQLVESGGGLVQPGRSLKLSCVASGFTFNNYWMTWIRQAPGKGLEWVASITNTGGSTFYPDSVKGRFTISRDNAKSTLYLQMNSLRSEDTATYYCTRGPDYGGHLNWFAYWGQGTLVTVSS VL: DIVMTQSPTSMSISAGDRVTMNCKASQNVGSNVDWYQQKTGQSPKLLIYKASNRYTGVPDRCTGSGSGTDFTFTISNMQAEDLAVYYCMQSNSYPPTFGGGTKLELK
binds | 28F12 (antibody, V domains shown, Rat monoclonal antibody from a hybridoma; also called rat mAb 28F12) VH: EVQLVESDGGLAQPGRSLKLSCAASGFTFSDYYMAWVRQAPTKGLEWVATISYDGSSTYYRDSVRGRFTISRDNAKSTLYLQMDSLRSEDTATYYCARGPLTDWAPNWFAYWGQGTLVTVSS VL: DIQMTQSPASLSASLGETVTIQCQTSEDIYSGLAWYQQKPGKSPQFLIYGASRLEDGVPSRFSGSGSGTQYSLKISSMQTEDEGVYFCQQGLKYPNTFGAGTKLELK
binds | 47F3 (antibody, V domains shown, Rat monoclonal antibody from a hybridoma; also called rat mAb 47F3) VH: EVQLVESGGGLVQPGRSMKLSCVASGFTFSNYYMAWVRQAPTKGLEWVASISTGGGNTYYRDSVKGRFTISRDNAKSTLYLQMDSLRSEDTATYYCARHGTLYFDYWGQGVMVTVS VL: QFTLTQPKSVSGSLRSTITIPCERSSGDIGNTYVSWYQQHLGRPPINVIYADDQRPSEVSDRFSGSIDSSSNSASLTITNLQMDDEADYFCQSYDSNIDGPVFGGGTKLTVL
binds | 27A10 (antibody, V domains shown, Rat monoclonal antibody from a hybridoma; also called rat mAb 27A10) VH: EVQLVESGGGLVQPGRSMKLSCTASGFTFSNYYMAWVRQAPTKGLEWVASISTGGGNTYYRDSVKGRFTISRDNAKSTLYLQMDSLRAEDTATYYCARHTMGYFDYWGQGVMVTVSS VL: QFTLTQPKSVSGSLRSTITIPCERSSGDIGDNYVSWYQQHLGRPPINVIYADDQRPSEVSDRFSGSIDSSSNSASLTITNLQMDDEADYFCQSYDGKIEIPVFGGGTKLTVL
binds | 10A12 (antibody, V domains shown, Rat monoclonal antibody from a hybridoma; also called rat mAb 10A12) VH: EVQLVESGGGLVKPGRSMKLSCAASGFTFSNYYMAWVRQAPTKGLEWVASISTGGGNTYYRDSVKGRFTISRDNAKRTLYLQMDSLRSEDTATYYCGRHGTLYFDYWGQGVMVTVSS VL: QFTLTQPKSVSGSLRSTITIPCERSSGDIGDSYVSWYQQHLGRPPINVIYVDDQRPSEVSDRFSGSIDSSSNSASLTITDLQMDDEADYFCQSYDSNIDGPVFGGGTKLTVL
binds | 53B3 (antibody, V domains shown, Rat monoclonal antibody from a hybridoma; also called rat mAb 53B3) VH: EVQLVESGGGLVQPGRSMKLSCAAFGFTFNNYYMAWVRQAPTKGLEWVASISTGGGNTFYRDSVKGRFTISRDNVKSILSLQMDSLRSEDTATYYCARHGTIAAMDYWGQGVMVTVSS VL: QFTLTQPKSVSGSLRSTITIPCERTSGDIGDNYVSWYQQHLGRPPINVIYADDQRPSEVSDRFSGSIDSSSNSASLTITNLQMDDEADYFCQSYDSNIDGPVFGGGTKLTVL
binds | 4G7 (antibody, V domains shown, Rat monoclonal antibody from a hybridoma; also called rat mAb 4G7) VH: EVQLQQYGAELGKPGTSVKLSCKVSGYNIRSTFMHWVNQRPGKGLEWIGRIDPVNGNTIYSEKFKSKATLTADTSSNTAYMQLSQLKSDDTAIYFCAMFNYAGHSGDYWGQGVMVTVSS VL: DIQMTQSPSSMSVSLGDTVTITCRASQDVGIYVNWFQQKPGKSPRRMIYRATNLADGVPSRFSGSRSGSDYSLTISSLESEDVADYHCLQYDEYPYTFGAGTKLELK

The next lines start with the binder.

Binder | binding result
44E2 (antibody, V domains shown, Rat monoclonal antibody from a hybridoma; also called rat mAb 44E2) VH: QVQLKESGPGLVQPSQTLSLTCTVSGFSLTSNGVSWVRQPPGKGLEWIAAISSGGSTYYNSVLKSRLSISRDTSKSQVFLKMNSLQTEDTAIYFCTRRLSGYNYVPFAYWGQGTLVTVSS VL: DIQMTQSPSLLSASVGDRVTLNCKASQNIYKHLAWCQQKLGEPPNLLISNANSLQTGIPSRFSGSGSGTDFTLTISSLQPEDVATYFCQQYYSGDTFGAGTKLELK | binds
48B1 (antibody, V domains shown, Rat monoclonal antibody from a hybridoma; also called rat mAb 48B1) VH: EVQLVESGGGLVQPGRTLKLFCVASGFTFNNYWMTWIRQAPGKGLEWVASITNTGGSTYYPDSVKGRFTISRDNAKSTLYLQMNSLRSEDTATYYCTRGPDYGGHLNWFVYWGQGTLVTVSS VL: DIVMTQSPTSMSISVGDRVTMNCKASQNVGSNVDWYQQKTGQSPKLLIYKASNRYTGVPDRFTGSGSGTDFTFTISNMQAEDLAVYYCMQSNSYPPTFGGGTKLELK | binds
20B8 (antibody, V domains shown, Rat monoclonal antibody from a hybridoma; also called rat mAb 20B8) VH: EVQLVESGGGLVQPGRSLKLSCVASGFTFNNYWMTWIRQAPGKGLEWVASITNTGGSTYYPDSVKGRFTISRDNAKSTLYLQMNSLRSEDTATYYCTRGPTTVVGGWFAYWGQGTLVTVSS VL: DIVMTQSPTSMSISVGDRVTMNCKASQNVGSNVDWYQQKTGQSPKLLIYRPSNRYTGVPDRFTGSGSGTDFTFTISNMQAEDLAVYYCMQSNSYPPTFGGGTKLELK | binds
22B4 (antibody, V domains shown, Rat monoclonal antibody from a hybridoma; also called rat mAb 22B4) VH: EVQLVESGGGLVQPGRSLKLSCVASGFTFNKYWMTWIRQAPGKGLEWVASITNTGGSSYYSDSVKGRFTISRDNAKSTLYLQMNSLRSEETATYYCTRGPDYGGHLNWFAYWGQGTLVTVSS VL: DIVMTQSPTSMSISVGDRVTMNCKASQNVGSNVDWYQEKTGQSPKLVIYKASNRYTGVPDRFTGSGSGTDFTFTISNMQAEDLAVYYCMQSNSYPPTFGGGTKLELK | binds
49D3 (antibody, V domains shown, Rat monoclonal antibody from a hybridoma; also called rat mAb 49D3) VH: EVQLVESGGGLVQPGRSMKLSCAASGFTFSNYYMAWVRQAPTKGLEWVASISTGGGNTYYRDSVKGRFTISRDNAKSTLYLQMDSLRSEDTATYYCARHGTLYFDYWGQGVMVTVSS VL: QFTLTQPKSVSGSLRSTITIPCERSSGDIGDSYVSWYQQHLGRPPINVIYADDQRPSEVSDRFSGSIDSSSNSASLTITNLQMDDEADYFCQSYDSNIDGPVFGGGTKLTVL | binds
51G4 (antibody, V domains shown, Rat monoclonal antibody from a hybridoma; also called rat mAb 51G4) VH: EVQLVESGGGLVQPGRSMKLSCAALGFTFSNYYMAWVRQAPTKGLEWVASISTGGGNTYYRDSVKGRFTISRDNAKNTLYLQMDSLRSEDTATYYCARHGTIAAMDYWGQGVMVTVSS VL: QFTLTQPKSVSGSLRSTITIPCERNNGDIGDSYVSWYQQHLGRPPIIVIYADDQRPSEVSDRFSGSIDSSSNSASLTITNLQMDDEADYFCQSYDSNIDGPVFGGGTKLTVL | binds

Molecular target: T1, Canine IL-31RA ECD-10His
Assay: ELISA (FIG. 6B)

binding result | Binder
binds | caninized 28F12VH1VK3 (antibody, V domains shown, Caninized antibody, canine IgG-Bm heavy chain and canine kappa light chain; also called c28F12VH1-cIgGBm + c28F12VK3-cCK) VH: EVQLVESGGDLVKPGGSLRLSCVASGFTFSDYYMAWVRQAPGKGLQWVATISYDGSSTYYRDSVRGRFTISRDNAKNTLYLQMNSLRAEDTAMYYCAKGPLTDWAPNWFAYWGQGTLVTVSS VL: DIVMTQSPASLSLSQEEKVTITCQTSEDIYSGLAWYQQKPGQAPKLLIYGASRLEDGVPSRFSGSGSGTDFSFTISSLEPEDVAVYFCQQGLKYPNTFGAGTKVELKR
binds | caninized 28F12VH2VK4 (antibody, V domains shown, Caninized antibody, canine IgG-Bm heavy chain and canine kappa light chain; also called c28F12VH2-cIgGBm + c28F12VK4-cCK) VH: EVQLVESGGDLVKPGGSLRLSCAASGFTFSDYYMAWVRQAPGKGLQWVATISYDGSSTYYRDSVRGRFTISRDNAKNTLYLQMNSLRAEDTAMYYCARGPLTDWAPNWFAYWGQGTLVTVSS VL: DIVMTQTPLSLSVSPGETASISCQTSEDIYSGLAWFRQKPGQSPQLLIYGASRLEDGVPDRFSGSGSGTDFTLRISTVEADDTGVYFCQQGLKYPNTFGAGTKVELKR
binds | caninized 28F12VH2VK2 (antibody, V domains shown, Caninized antibody, canine IgG-Bm heavy chain and canine kappa light chain; also called caninized 28F12VH2K2; c28F12) VH: EVQLVESGGDLVKPGGSLRLSCAASGFTFSDYYMAWVRQAPGKGLQWVATISYDGSSTYYRDSVRGRFTISRDNAKNTLYLQMNSLRAEDTAMYYCARGPLTDWAPNWFAYWGQGTLVTVSS VL: EIVMTQSPASLSLSQEEKVTITCQTSEDIYSGLAWYQQKPGQAPKLLIYGASRLEDGVPSRFSGSGSGTDFSFTISSLEPEDVAVYYCQQGLKYPNTFGAGTKVELKR

Second part, the binder before the results:

Binder | binding result
caninized 28F12VH2VK3 (antibody, V domains shown, Caninized antibody, canine IgG-Bm heavy chain and canine kappa light chain; also called c28F12; c28F12VH2-cIgGBm + c28F12VK3-cCK) VH: EVQLVESGGDLVKPGGSLRLSCAASGFTFSDYYMAWVRQAPGKGLQWVATISYDGSSTYYRDSVRGRFTISRDNAKNTLYLQMNSLRAEDTAMYYCARGPLTDWAPNWFAYWGQGTLVTVSS VL: DIVMTQSPASLSLSQEEKVTITCQTSEDIYSGLAWYQQKPGQAPKLLIYGASRLEDGVPSRFSGSGSGTDFSFTISSLEPEDVAVYFCQQGLKYPNTFGAGTKVELKR | binds
caninized 28F12VH1VK4 (antibody, V domains shown, Caninized antibody, canine IgG-Bm heavy chain and canine kappa light chain; also called c28F12VH1-cIgGBm + c28F12VK4-cCK) VH: EVQLVESGGDLVKPGGSLRLSCVASGFTFSDYYMAWVRQAPGKGLQWVATISYDGSSTYYRDSVRGRFTISRDNAKNTLYLQMNSLRAEDTAMYYCAKGPLTDWAPNWFAYWGQGTLVTVSS VL: DIVMTQTPLSLSVSPGETASISCQTSEDIYSGLAWFRQKPGQSPQLLIYGASRLEDGVPDRFSGSGSGTDFTLRISTVEADDTGVYFCQQGLKYPNTFGAGTKVELKR | binds
